# Laboratory results reported in PMC5705260.
# Experiments:
# [1] = target: ArtB (Salmonella enterica serovar Typhimurium DT104) (UniProt Q404H3); experiment: ion exchange chromatography + SEC
# [2] = target: ArtB (Salmonella enterica serovar Typhimurium DT104) (UniProt Q404H3); experiment: co-purification of co-expressed subunits
# [3] = target: ArtB-His6 (Salmonella enterica serovar Typhimurium DT104) (UniProt Q404H3); experiment: crystal structure
# [4] = target: PltB-His6 (Salmonella Typhi) (UniProt Q8Z6A3); experiment: crystal structure
substance,measurement,setting,value
ArtB (from UniProt Q404H3 1-141) (natural protein),stoichiometry N,[1],5
same,stoichiometry N,[2],5
ArtB-His6 (from UniProt Q404H3 1-141) (natural protein),stoichiometry N,[3],5
PltB-His6 (from UniProt Q8Z6A3 1-137) (natural protein),stoichiometry N,[4],5
